In US20160002357A1 (Pfizer, published 2016):
Where “and” joins values, the source holds several entries; their conditions need not be identical. Identical values can stand only once.

Legend:
[1] = target: T1, cynomolgus monkey P-cadherin ECD (cynomolgus monkey); test: SPR Biacore 3000, antigen immobilised
T1 construct: extracellular domain; also called cyno P-cadherin ECD; Cyno P-cadherin
Protocol: (§1) Binding affinity of EK-DART proteins to P-cadherin and CD3 was analyzed by SPR using a BIACORE® 3000 biosensor (GE Healthcare). The antigens huCD3εδ and either human P-cadherin-Fc or human/cynomolgus monkey/murine P-cadherin-ECD were immobilized on the CM-5 sensor chip by amine coupling kit as recommended by the manufacturer. […] All EK-DART proteins in Tables 15 and 16 comprise CD3-2.

[2] = target: T2, Hu P-cadherin-Fc (human, UniProt P22223 108-654, limits assumed); test: ELISA
T2 construct: also called recombinant human P-cadherin-Fc; human P-cadherin-Fc; not shown: Fc

[3] = target: T3, human P-cadherin expressed on the cell surface (human, UniProt P22223 108-829); test: cell ELISA, H1650 cells
T3 construct: also called SW480-huPcad; CHO-huPcad

[4] = target: T1, cynomolgus monkey P-cadherin ECD; test: SPR Biacore
Protocol: as §1
All EK-DART proteins in Table 17 comprise CD3-2.

[5] = target: T1, cynomolgus monkey P-cadherin ECD; test: SPR Biacore pH 7.4
[6] = target: T1, cynomolgus monkey P-cadherin ECD; test: SPR Biacore pH 7.4, average

T2 sequence (P22223 108-654 limits assumed): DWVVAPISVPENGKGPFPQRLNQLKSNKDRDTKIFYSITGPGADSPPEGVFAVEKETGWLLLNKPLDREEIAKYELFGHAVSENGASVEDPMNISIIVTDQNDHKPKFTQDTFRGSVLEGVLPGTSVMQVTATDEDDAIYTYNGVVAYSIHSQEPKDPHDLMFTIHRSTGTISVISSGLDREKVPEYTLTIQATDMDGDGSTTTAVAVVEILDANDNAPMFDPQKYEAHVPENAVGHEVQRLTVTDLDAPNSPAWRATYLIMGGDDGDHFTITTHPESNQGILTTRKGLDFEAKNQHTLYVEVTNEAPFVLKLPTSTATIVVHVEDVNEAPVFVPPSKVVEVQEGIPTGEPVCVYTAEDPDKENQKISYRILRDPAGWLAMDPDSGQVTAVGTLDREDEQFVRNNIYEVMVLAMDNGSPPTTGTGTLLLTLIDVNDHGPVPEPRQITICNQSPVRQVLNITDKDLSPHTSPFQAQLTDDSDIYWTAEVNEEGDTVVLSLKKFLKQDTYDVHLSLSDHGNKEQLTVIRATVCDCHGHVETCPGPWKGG
T3 sequence (P22223 108-829): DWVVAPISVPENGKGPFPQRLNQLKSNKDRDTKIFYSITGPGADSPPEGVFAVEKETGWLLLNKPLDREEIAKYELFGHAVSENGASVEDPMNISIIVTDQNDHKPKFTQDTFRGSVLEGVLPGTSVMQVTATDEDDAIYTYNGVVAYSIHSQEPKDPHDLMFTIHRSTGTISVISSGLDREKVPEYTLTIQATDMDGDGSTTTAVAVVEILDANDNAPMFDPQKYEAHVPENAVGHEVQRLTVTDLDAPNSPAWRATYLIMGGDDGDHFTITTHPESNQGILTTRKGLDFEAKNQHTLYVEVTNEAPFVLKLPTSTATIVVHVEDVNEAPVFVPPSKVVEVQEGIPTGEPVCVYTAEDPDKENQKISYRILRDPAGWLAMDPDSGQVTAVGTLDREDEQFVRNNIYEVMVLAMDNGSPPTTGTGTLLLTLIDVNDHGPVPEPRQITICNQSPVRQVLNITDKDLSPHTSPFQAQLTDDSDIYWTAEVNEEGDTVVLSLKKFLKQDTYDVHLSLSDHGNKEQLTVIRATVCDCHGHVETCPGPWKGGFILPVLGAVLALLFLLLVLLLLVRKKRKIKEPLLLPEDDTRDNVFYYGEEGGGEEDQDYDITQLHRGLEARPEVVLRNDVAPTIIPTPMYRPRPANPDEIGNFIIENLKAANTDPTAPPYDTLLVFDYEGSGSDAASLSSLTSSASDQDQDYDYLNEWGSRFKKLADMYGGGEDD

Binder	Kd [1]	koff [1]	kon [1]	EC50 [2]	EC50 [3]	Kd [4]	koff [4]	kon [4]	Kd [5]	koff [5]	kon [5]	t½ [5]	Kd [6]
33 EK-DART (bispecific antibody, CD3 VL x P-CAD VH-E-coil); also called P-CAD 33 EK-DART (CD3-2)) chain 1: QSVLTQPPSVSAAPGQKVTISCSGSSSNIGNNYVSWYQQLPGTAPKLLIYDNNKRPSGIPDRFSGSKSGTSATLGITGLQTGDEADYYCGTWDSSLSAYVFGTGTKVTVLGGGSGGGGEVQLVESGGGLVQPGGSLRLSCAASGFTFNTYAMNWVRQAPGKGLEWVARIRSKYNNYATYYADSVKDRFTISRDDSKNSLYLQMNSLKTEDTAVYYCVRHGNFGNSYVSWFAYWGQGTLVTVSSGGCGGGKVAALKEKVAALKEKVAALKEKVAALKE chain 2: QAVVTQEPSLTVSPGGTVTLTCRSSTGAVTTSNYANWVQQKPGQAPRGLIGGTNKRAPWTPARFSGSLLGGKAALTITGAQAEDEADYYCALWYSNLWVFGGGTKLTVLGGGGSGGGGQMQLVQSGAEVKKPGASVKVSCKASGYTFTSYGISWVRQAPGQGLEWMGWISAYNGNTNYAQKLQGRVTMTTDTSTSTAYMELRSLRSDDTAVYYCALIGSGVAFDIWGQGTMVTVSSGGCGGGEVAALEKEVAALEKEVAALEKEVAALEK	46.4 nM	0.0578 s⁻¹	1.15e+06 M⁻¹ s⁻¹	1.8 nM	60.1 nM								
34 EK-DART (bispecific antibody, also called P-CAD 34 EK-DART (CD3-2)) chain 1: QSVVTQPPSVSAAPGQKVTISCSGSSSNIGNNYVSWYQQLPGTAPKLLIYDNNKRPSGIPDRFSGSKSGTSATLGITGLQTGDEADYYCGTWDSSLSAWVFGGGTKLTVLGGGSGGGGEVQLVESGGGLVQPGGSLRLSCAASGFTFNTYAMNWVRQAPGKGLEWVARIRSKYNNYATYYADSVKDRFTISRDDSKNSLYLQMNSLKTEDTAVYYCVRHGNFGNSYVSWFAYWGQGTLVTVSSGGCGGGKVAALKEKVAALKEKVAALKEKVAALKE chain 2: QAVVTQEPSLTVSPGGTVTLTCRSSTGAVTTSNYANWVQQKPGQAPRGLIGGTNKRAPWTPARFSGSLLGGKAALTITGAQAEDEADYYCALWYSNLWVFGGGTKLTVLGGGGSGGGGEVQLVQSGAEVKKPGASVKVSCKASGYTFTSYGISWVRQAPGQGLEWMGWISAYNGNTNYAQKLQGRVTMTTDTSTSTAYMELRSLRSDDTAVYYCATIDTASAFDIWGQGTMVTVSSGGCGGGEVAALEKEVAALEKEVAALEKEVAALEK	129 nM	0.0833 s⁻¹	705000 M⁻¹ s⁻¹	2.85 nM	68 nM								
153 EK-DART (bispecific antibody) chain 1: QSVLTQPPSVSAAPGQKVTISCSGSSSNIGNNYVSWYQQLPGTAPKLLIYDNNKRPSGIPDRFSGSKSGTSATLGITGLQTGDEADYYCGTWDSSLSGVVFGGGTKLTVLGGGSGGGGEVQLVESGGGLVQPGGSLRLSCAASGFTFNTYAMNWVRQAPGKGLEWVARIRSKYNNYATYYADSVKDRFTISRDDSKNSLYLQMNSLKTEDTAVYYCVRHGNFGNSYVSWFAYWGQGTLVTVSSGGCGGGKVAALKEKVAALKEKVAALKEKVAALKE chain 2: QAVVTQEPSLTVSPGGTVTLTCRSSTGAVTTSNYANWVQQKPGQAPRGLIGGTNKRAPWTPARFSGSLLGGKAALTITGAQAEDEADYYCALWYSNLWVFGGGTKLTVLGGGGSGGGGEVQLVQSGAEVKKPGASVKVSCKASGYTFTSYGISWVRQAPGQGLEWMGWISAYNGNTNYAQKLQGRVTMTTDTSTSTAYMELRSLRSDDTAVYYCATIDTANAFGIWGQGTMVTVSSGGCGGGEVAALEKEVAALEKEVAALEKEVAALEK						0.232 nM	0.000172 s⁻¹	732000 M⁻¹ s⁻¹	0.403 nM and 0.43 nM	0.000211 s⁻¹ and 0.000222 s⁻¹	524000 M⁻¹ s⁻¹ and 517000 M⁻¹ s⁻¹	51.6 min and 49 min	0.417 nM
153 MP3 C-terminal DART (bispecific antibody, also called C-terminal MP3-DART P-CAD153 VH and VL) chain 1: DKTHTCPPCPAPEAAGAPSVFLFPPKPKDTLMISRTPEVTCVVVDVSHEDPEVKFNWYVDGVEVHNAKTKPREEQYNSTYRVVSVLTVLHQDWLNGKEYKCKVSNKALPAPIEKTISKAKGQPREPQVYTLPPSREEMTKNQVSLWCLVKGFYPSDIAVEWESNGQPENNYKTTPPVLDSDGSFFLYSKLTVDKSRWQQGNVFSCSVMHEALHNHYTQKSLSLSPGKAPSSSPMEQSVLTQPPSVSAAPGQKVTISCSGSSSNIGNNYVSWYQQLPGTAPKLLIYDNNKRPSGIPDRFSGSKSGTSATLGITGLQTGDEADYYCGTWDSSLSGVVFGGGTKLTVLGGGGSGGGGEVQLVESGGGLVQPGGSLRLSCAASGFTFSTYAMNWVRQAPGKGLEWVGRIRSKYNNYATYYADSVKGRFTISRDDSKNSLYLQMNSLKTEDTAVYYCVRHGNFGNSYVSWFAYWGQGTLVTVSSGVEPKSC chain 2: QAVVTQEPSLTVSPGGTVTLTCRSSTGAVTTSNYANWVQQKPGQAPRGLIGGTNKRAPWTPARFSGSLLGGKAALTITGAQAEDEADYYCALWYSNLWVFGGGTKLTVLGGGGSGGGGEVQLVQSGAEVKKPGASVKVSCKASGYTFTSYGISWVRQAPGQGLEWMGWISAYNGNTNYAQKLQGRVTMTTDTSTSTAYMELRSLRSDDTAVYYCATIDTANAFGIWGQGTMVTVSSGFNRGEC chain 3: DKTHTCPPCPAPEAAGAPSVFLFPPKPKDTLMISRTPEVTCVVVDVSHEDPEVKFNWYVDGVEVHNAKTKPREEQYNSTYRVVSVLTVLHQDWLNGKEYKCKVSNKALPAPIEKTISKAKGQPREPQVYTLPPSREEMTKNQVSLSCAVKGFYPSDIAVEWESNGQPENNYKTTPPVLDSDGSFFLVSKLTVDKSRWQQGNVFSCSVMHEALHNRYTQKSLSLSPGK									1.56 nM and 2.11 nM	0.000106 s⁻¹ and 0.000179 s⁻¹	68000 M⁻¹ s⁻¹ and 84600 M⁻¹ s⁻¹	102 min and 60.9 min	1.84 nM
153 MP3 N-terminal DART (bispecific antibody, human IgG1) chain 1: QSVLTQPPSVSAAPGQKVTISCSGSSSNIGNNYVSWYQQLPGTAPKLLIYDNNKRPSGIPDRFSGSKSGTSATLGITGLQTGDEADYYCGTWDSSLSGVVFGGGTKLTVLGGGGSGGGGEVQLVESGGGLVQPGGSLRLSCAASGFTFSTYAMNWVRQAPGKGLEWVGRIRSKYNNYATYYADSVKGRFTISRDDSKNSLYLQMNSLKTEDTAVYYCVRHGNFGNSYVSWFAYWGQGTLVTVSSGVEPKSCDKTHTCPPCPAPEAAGAPSVFLFPPKPKDTLMISRTPEVTCVVVDVSHEDPEVKFNWYVDGVEVHNAKTKPREEQYNSTYRVVSVLTVLHQDWLNGKEYKCKVSNKALPAPIEKTISKAKGQPREPQVYTLPPSREEMTKNQVSLWCLVKGFYPSDIAVEWESNGQPENNYKTTPPVLDSDGSFFLYSKLTVDKSRWQQGNVFSCSVMHEALHNHYTQKSLSLSPGK chain 2: QAVVTQEPSLTVSPGGTVTLTCRSSTGAVTTSNYANWVQQKPGQAPRGLIGGTNKRAPWTPARFSGSLLGGKAALTITGAQAEDEADYYCALWYSNLWVFGGGTKLTVLGGGGSGGGGEVQLVQSGAEVKKPGASVKVSCKASGYTFTSYGISWVRQAPGQGLEWMGWISAYNGNTNYAQKLQGRVTMTTDTSTSTAYMELRSLRSDDTAVYYCATIDTANAFGIWGQGTMVTVSSGFNRGEC chain 3: DKTHTCPPCPAPEAAGAPSVFLFPPKPKDTLMISRTPEVTCVVVDVSHEDPEVKFNWYVDGVEVHNAKTKPREEQYNSTYRVVSVLTVLHQDWLNGKEYKCKVSNKALPAPIEKTISKAKGQPREPQVYTLPPSREEMTKNQVSLSCAVKGFYPSDIAVEWESNGQPENNYKTTPPVLDSDGSFFLVSKLTVDKSRWQQGNVFSCSVMHEALHNRYTQKSLSLSPGK									2.43 nM and 2.78 nM	0.000296 s⁻¹ and 0.000228 s⁻¹	122000 M⁻¹ s⁻¹ and 81900 M⁻¹ s⁻¹	36.8 min and 47.8 min	2.61 nM
20 EK-DART (bispecific antibody, also called P-CAD 20 EK-DART (CD3-2)) chain 1: AIQMTQSPSSLSASVGDRVTITCRASQSIGKYLNWYQQIPGKAPKLLIYTASTLQTGVPSRFSGSGSGTDFTLTIVSLQPEDFATYYCQQSFNTPRTFGQGTKVEIKGGGSGGGGEVQLVESGGGLVQPGGSLRLSCAASGFTFNTYAMNWVRQAPGKGLEWVARIRSKYNNYATYYADSVKDRFTISRDDSKNSLYLQMNSLKTEDTAVYYCVRHGNFGNSYVSWFAYWGQGTLVTVSSGGCGGGKVAALKEKVAALKEKVAALKEKVAALKE chain 2: QAVVTQEPSLTVSPGGTVTLTCRSSTGAVTTSNYANWVQQKPGQAPRGLIGGTNKRAPWTPARFSGSLLGGKAALTITGAQAEDEADYYCALWYSNLWVFGGGTKLTVLGGGGSGGGGEVQLVQSGAEVKKPGASVKVSCKASGYTFTGYYMHWVRQAPGQGLEWMGRINPNSGGTNYAQKFQGRVTMTRDTSISTAYMELSRLRSDDTAVYYCAKGSGSGAFDIWGQGTMVTVSSGGCGGGEVAALEKEVAALEKEVAALEKEVAALEK	2.03 nM	0.00704 s⁻¹	3.46e+06 M⁻¹ s⁻¹	12.3 nM	~115 nM								
30 EK-DART (bispecific antibody, also called P-CAD 30 EK-DART (CD3-2)) chain 1: DIVMTQSPLSLPVTLGQPASISCRSSQSLVHSDGNTYLHWFQQRPGQSPRRLIYKVSNRDSGVPDRFSGSGSGTDFTLKISRVEAEDVGVYYCMQGTHWPPLFGQGTKVEIKGGGSGGGGEVQLVESGGGLVQPGGSLRLSCAASGFTFNTYAMNWVRQAPGKGLEWVARIRSKYNNYATYYADSVKDRFTISRDDSKNSLYLQMNSLKTEDTAVYYCVRHGNFGNSYVSWFAYWGQGTLVTVSSGGCGGGKVAALKEKVAALKEKVAALKEKVAALKE chain 2: QAVVTQEPSLTVSPGGTVTLTCRSSTGAVTTSNYANWVQQKPGQAPRGLIGGTNKRAPWTPARFSGSLLGGKAALTITGAQAEDEADYYCALWYSNLWVFGGGTKLTVLGGGGSGGGGEVQLVESGGGVVQPGRSLRLSCAASGFTFSSYGMHWVRQAPGKGLEWVAVISYDGSNKYYADSVKGRFTISRDNSKNTLYLQMNSLRAEDTAVYYCAKSSSDRTFDYWGQGTLVTVSSGGCGGGEVAALEKEVAALEKEVAALEKEVAALEK	1.37 nM	0.00648 s⁻¹	4.72e+06 M⁻¹ s⁻¹	3.68 nM	142 nM								
